Positions count from the first letter of the chain named.
T1: mouse P2X7 (mouse, UniProt Q9Z1M0 1-595)
T1 construct: on transfected CHO or Hek293 cells, or endogenous on Yac-1 cells; also called mP2X7; mouse purinoceptor P2X7
T1 sequence: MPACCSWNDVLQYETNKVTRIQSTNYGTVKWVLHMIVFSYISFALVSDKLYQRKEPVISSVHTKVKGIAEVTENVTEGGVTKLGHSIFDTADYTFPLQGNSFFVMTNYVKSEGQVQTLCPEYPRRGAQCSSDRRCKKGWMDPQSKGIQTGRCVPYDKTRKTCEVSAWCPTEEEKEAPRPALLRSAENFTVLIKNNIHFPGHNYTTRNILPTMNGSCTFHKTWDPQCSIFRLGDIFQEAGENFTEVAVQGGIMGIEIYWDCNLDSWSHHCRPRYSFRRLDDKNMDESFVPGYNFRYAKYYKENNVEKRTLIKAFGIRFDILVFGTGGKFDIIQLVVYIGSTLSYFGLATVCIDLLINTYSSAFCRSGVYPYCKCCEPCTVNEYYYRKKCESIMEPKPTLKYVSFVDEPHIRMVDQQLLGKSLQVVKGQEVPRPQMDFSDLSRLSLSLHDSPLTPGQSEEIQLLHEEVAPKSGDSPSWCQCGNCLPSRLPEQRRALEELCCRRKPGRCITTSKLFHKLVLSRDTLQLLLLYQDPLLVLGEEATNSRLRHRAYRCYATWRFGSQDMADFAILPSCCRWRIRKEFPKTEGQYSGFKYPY

T2: mouse P2X7 mutant R151A (mouse, UniProt Q9Z1M0 1-595)
T2 construct: transiently transfected Hek293 cells
T2 sequence: T1 sequence with R151A

T3: human P2X7 (human, UniProt Q99572 1-595)
T3 construct: on transfected Hek293 cells; also called hP2X7
T3 sequence: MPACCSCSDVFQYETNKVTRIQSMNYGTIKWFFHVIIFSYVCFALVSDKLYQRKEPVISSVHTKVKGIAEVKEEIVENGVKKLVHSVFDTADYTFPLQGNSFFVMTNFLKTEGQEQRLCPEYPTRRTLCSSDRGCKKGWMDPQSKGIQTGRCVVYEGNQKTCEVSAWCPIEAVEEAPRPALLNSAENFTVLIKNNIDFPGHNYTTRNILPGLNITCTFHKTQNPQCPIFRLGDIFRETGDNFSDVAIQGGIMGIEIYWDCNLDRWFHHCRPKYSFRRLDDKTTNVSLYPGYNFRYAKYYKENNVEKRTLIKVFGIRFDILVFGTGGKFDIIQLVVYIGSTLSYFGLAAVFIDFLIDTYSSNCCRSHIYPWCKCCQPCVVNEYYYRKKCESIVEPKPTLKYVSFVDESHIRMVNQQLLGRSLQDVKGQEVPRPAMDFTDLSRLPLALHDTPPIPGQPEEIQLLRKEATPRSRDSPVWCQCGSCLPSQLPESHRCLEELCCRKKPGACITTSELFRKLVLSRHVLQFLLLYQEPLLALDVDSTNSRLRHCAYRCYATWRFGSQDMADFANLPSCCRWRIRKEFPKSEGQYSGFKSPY

T4: human P2X4 (human, UniProt Q99571 1-388)
T4 construct: whole, on cells; also called hP2X4
T4 sequence (looked up): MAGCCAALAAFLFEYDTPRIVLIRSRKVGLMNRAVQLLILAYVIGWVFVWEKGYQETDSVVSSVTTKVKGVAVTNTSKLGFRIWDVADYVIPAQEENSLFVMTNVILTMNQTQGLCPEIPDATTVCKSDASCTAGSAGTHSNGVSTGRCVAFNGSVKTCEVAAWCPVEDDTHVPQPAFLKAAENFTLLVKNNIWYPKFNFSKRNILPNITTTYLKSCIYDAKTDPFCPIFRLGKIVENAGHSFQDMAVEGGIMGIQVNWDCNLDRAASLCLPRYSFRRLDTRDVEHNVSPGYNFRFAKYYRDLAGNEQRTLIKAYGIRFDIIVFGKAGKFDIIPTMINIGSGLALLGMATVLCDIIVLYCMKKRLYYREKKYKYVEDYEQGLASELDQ

B1: P2X7PMP8G12 (VHH)
VHH: KVQLVESGGGLVQAGGSLRLSCAASGSFFRVNNMAWYRQGPGKQRELVADITRGDRTNYADSVNGRFTISRDNVRNTVYLQMNGLKPEDTAVYYCYATIELGVLEPRDYWGQGTQVTVSS
notes: family 5, 3; on phage or c-myc/His6-tagged in assays; also called 8012
B2: P2X7PMP8G11 (VHH)
VHH: B1 VHH with K1A, S27N, N33T, G40A, S62T, K86R, V92A, T98V
notes: family 5, 1; on phage or c-myc/His6-tagged in assays; also called 8011
B3: P2X7PMP13F6 (VHH)
VHH: EVQLVESGGGLVQPGGSLRLSCAASGFTFSTNIMTWVRQAPGKGLEWISTINSGGGTTTYADSVRGRFTISRDNAKNMLYLQMSSLKPEDTALYYCITPRGVKGRGTQVTVSS
notes: family 20; on phage or c-myc/His6-tagged in assays
B4: P2X7PMP20A11 (VHH)
VHH: EVQLVESGGRVMQTGGSLRLSCAASGHTFNDYNMGWFRQAPGKELEFLAGINWSGMSTWYADSVKDRFTISRDNNKNTVFLQMNSLEPGDTAVYYCAARQWISTIILTAPSQYDYWGQGTQVTVSS
notes: family 24; on phage or c-myc/His6-tagged in assays
B5: P2X7PMP2C4 (VHH)
VHH: EVQLVESGGDVVQAGGSLRLSCLASGFTFDDYAIGWFRQAPGKEREGISCISSTGNVFYADSVKGRFTISSDKEKNTLYLQMNSLKPEDTAVYHCAAGHFTVDSGKVLLRTDISSWGQGTQVTVSS
notes: family 1; on phage or c-myc/His6-tagged in assays
B6: P2X7PMP14D5 (VHH)
VHH: KVQLVESGGGLVQAGGSLRLSCAASGSPISSYAMGWYRQAPGKPRELVARIYTGGTAWYEDSVKGRFTISRDNAQNTVYLQMNSLKSEDTAVYYCHGRVRYDYWGQGTQVTVSS
notes: family 17; on phage or c-myc/His6-tagged in assays
B7: P2X7PMP7H6 (VHH)
VHH: EVQLVESGGGLVQPGGSLRLSCVVSGSMYRIDNMGWYRQAPGKQRELVATVTRGDITNYADSVKGRFTIGRDNAKNTVYLQMNSLKPADTAVYYCNIDSYIIGAGVRDYWGRGTQVTVSS
notes: family 11; on phage or c-myc/His6-tagged in assays
B8: P2X7PMP7E2 (VHH)
VHH: EVQLVESGGGLVQAGGSLRLSCAAPERTYSMGWFRQAPGKEREFVAGSGWDGIPTRYADSVKGRFTISRDNAKNTVSLQMSGLKPEDTAIYYCATGTSVYHYQYWGQGTQVTVSS
notes: family 3; on phage or c-myc/His6-tagged in assays
B9: P2X7PMP6B7 (VHH)
VHH: EVQLVESGGGLVQAGGSLRLSCVVSGRTFSAMGWFRQAPGKEREFVATVGWNPMNSYYGDSVKGRFTIFRDNAKNTVYLQMNSLKPEDTAVYYCAGSGSLLDVTSEAVYTDWGQGTQVTVSS
notes: family 16; on phage or c-myc/His6-tagged in assays
B10: P2X7PMP7D5 (VHH)
VHH: EVQLVESGGGLVQAGDSLRLSCAASGRTFSSVAVGWFRQAPGKERDFVAWISWSGDSTYYADSVKGRFTASRDNVNNTVYLQMNSLKPEDTADYYCAAAWKYDRASYDFPEAYDYWGQGTQVTVSS
notes: family 14; on phage or c-myc/His6-tagged in assays

target: T1, mouse P2X7; assay: phage ELISA, mP2X7-CHO vs control CHO cells
Method: (§1) Sub-confluent cells were rinsed with PBS and fixed using 4% paraformaldehyde in PBS for 10 minutes at RT. Fixed cells were washed three times with PBS, and blocked with 2% BSA in PBS for 2 hours. Following blocking, 10-fold diluted culture supernatant containing phage was added and incubated for 1 hour. Cell-bound phage was detected via mouse anti-M13-HRP-conjugate (GE Healthcare, Cat nr. E2886). Rat mAb Hano43 was used as positive control.

Binder	absorption ratio (ELISA)
B1	36 ratio
B2	26 ratio

target: T1, mouse P2X7; assay: phage ELISA on fixed mP2X7-CHO vs untransfected CHO cells; phage ELISA, phage-displayed Nanobody, Cho P2X7 vs wt signal ratio
Method: as §1

Binder	Fold Cho P2X7/wt (phage ELISA)
B3	20 fold
B4	11 fold
B5	4 fold

target: T1, mouse P2X7; assay: cell-based or functional assay

Binder	ATP IC50 by 2 uM NB (head prints 'mM'; ligand titration at fixed Nanobody, CD62L shedding, Yac-1 cells)	IC50 (nM) against 20 uM NAD (CD62L shedding, Yac-1 cells)	IC50 (nM) against 100 uM ATP (CD62L shedding, Yac-1 cells)
B1	0.29 mM	82 nM	55 nM
B2	0.389 mM	68 nM	37 nM
B6	0.016 mM	–	–
B7	0.494 mM	208 nM	123 nM

target: T1, mouse P2X7; assay: cell-based or functional assay; remark: another data set of the same source

Binder	IC50 (read off the curve)
B2	~60 nM

target: T1, mouse P2X7; assay: cell-based or functional assay; remark: another data set of the same source

Binder	EC50, enhancement of CD62L-ectodomain shedding at 1.5 µM NAD	EC50, enhancement of CD62L-ectodomain shedding at 33 µM ATP
B6	4.1 nM	22.6 nM

target: T2, mouse P2X7 mutant R151A; assay: flow cytometry, 1 µM Nanobody on transiently transfected Hek293 cells, normalised to Hano43 staining
Method: For flow cytometric assays, detection of Nanobodies was performed via anti-Myc and subsequent goat anti-mouse-PE conjugate, while an estimation of P2X7 expression densities was obtained via staining with rat monoclonal Hano43 followed by secondary anti-rat-PE conjugate.

Binder	reduction of binding against WT mP2X7
B1	> 90%
B2	> 90%
B8	> 90%
B9	> 90%
B7	> 90%
B10	> 90%

target: T1, mouse P2X7; assay: flow cytometry, purified Nanobody titrated on mP2X7-CHO cells

Binder	EC50
B8	4.3 nM
B10	3 nM

target: T1, mouse P2X7; assay: phage ELISA on fixed mP2X7-CHO vs untransfected CHO cells;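 note: phage culture supernatant diluted 10-fold, applied for 1 h to paraformaldehyde-fixed, BSA-blocked cells in 96-well plates, with bound phage read via HRP-linked anti-M13 antibody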
Method: as §1

Binder	Fold Cho P2X7/wt (phage ELISA)
B1	36 fold
B2	26 fold
B8	25 fold
B9	24 fold
B6	8 fold
B7	23 fold
B10	14 fold

target: T3, human P2X7; assay: flow cytometry, Nanobody pre-incubated with anti-Myc-FITC

Binder	binding result
B3	no binding (tested: 147 nM)
B1	no binding (tested: 147 nM)
B8	no binding (tested: 147 nM)
B9	no binding (tested: 147 nM)
B4	no binding (tested: 147 nM)
B5	no binding (tested: 147 nM)
B7	no binding (tested: 147 nM)
B10	no binding (tested: 147 nM)

target: T4, human P2X4; assay: as above

Binder	binding result
B3	no binding (tested: 147 nM)
B1	no binding (tested: 147 nM)
B2	no binding (tested: 147 nM)
B8	no binding (tested: 147 nM)
B9	no binding (tested: 147 nM)
B4	no binding (tested: 147 nM)
B5	no binding (tested: 147 nM)
B6	no binding (tested: 147 nM)
B7	no binding (tested: 147 nM)
B10	no binding (tested: 147 nM)

target: T1, mouse P2X7; assay: flow cytometry, periplasmic extract pre-incubated with anti-myc-FITC, on mP2X7-Hek293 cells;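 note: periplasmic extract diluted 10-fold and premixed 45 min at 4 °C with FITC anti-myc antibody, giving pseudo-bivalent Nanobodies, before binding to the cells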
Method: Ten-fold diluted PE were pre-incubation with 0.5 μg anti-myc FITC-conjugated antibodies (AbD Serotec, cat no. MCA2200F) (creating pseudo-bivalent Nanobodies in order to increase binding strength) in 0.1 ml PBS/10% FCS for 45 minutes at 4° C. […] Alternatively, sequential staining of 10-fold diluted PE with anti-myc FITC-conjugated antibodies was done after incubation with the cells.

Binder	MFI FACS (pre-Myc incubation)
B1	166 MFI
B2	166 MFI

target: T1, mouse P2X7; assay: cell-based or functional assay; remark: another data set of the same source

Binder	IC50 (read off the curve)
B2	~20 nM
